Laboratory results from publication PMC11695723.

Legend:
[1] = molecular target: Origin Recognition Complex (ORC); assay: pre-RC assembly on DNA beads, silver-stained gel band quantification; details: ATP, low salt wash; read off a plot
[2] = molecular target: Origin Recognition Complex (ORC) (UniProt P54784); assay: pull-down; pre-RC assay as a2 but with 3 mM ATP, WT Cdc6, low salt wash

## MCM2-7 (wild type) mutant Mcm5:E710R; Mcm5:E717R; Mcm5:E736R [S. cerevisiae] / Origin Recognition Complex (ORC) [not stated] chain 4 E710R, chain 4 E717R, chain 4 E736R
[1]
  response: 0.5

## MCM2-7 (wild type) mutant Mcm5:K757D; Mcm5:R764E; Mcm5:R772E [S. cerevisiae] / Origin Recognition Complex (ORC) [not stated] chain 4 K757D, chain 4 R764E, chain 4 R772E
[1]
  response: 0.25

## MCM2-7 (wild type) mutant Mcm5:R721E; Mcm5:R735E [S. cerevisiae] / Origin Recognition Complex (ORC) [not stated] chain 4 R721E, chain 4 R735E
[1]
  response: 0.28

## MCM2-7-ΔC2, P29469 1-847; P24279 1-971; P30665 1-933; P29496 1-775; P53091 1-1017; P38132 1-845
[2]
  complex formation compared to WT: 65%
